# Experimental data from patent US20230295293A1, “BINDING MOLECULES AGAINST FRa” (AstraZeneca AB, priority 2022, published 2023).
# B1: AB1370026: anti-FRα fully human IgG1 antibody; VH SEQ ID NO: 39, VL SEQ ID NO: 40 (antibody, V domains shown)
# VH: EVQLVESGGGLVKPGGSLRLSCAASGFTFSSYAMSWVRQAPGKGLEWVSSISSGRSYIYYADSVKGRFTISRDNAKNSLYLKMNSLRDEDTAVYYCAREMQQLALDYWGQGTLVTVSS
# VL: DIQMTQSPSSLSASVGDRVTITCRASQGISNFLAWFQQAPGKAPKSLIYAASSLQSGVPSKFSGSGSGTDFTLTISSLQPEDFATYYCQQYNSYPFTFGQGTKLEIK
# B2: AB1370083: anti-FRα fully human IgG1 antibody; VH SEQ ID NO: 43, VL SEQ ID NO: 44 (antibody, V domains shown)
# VH: EVQLVESGGGLVKPGGSLRLSCAASGFTFSSYNMNWVRQAPGKGLEWVSSISSGSSYIYYADSMKGRFTISRDNAKNSLFLQMNSLRAEDTAVYYCARGMTTLTFDYWGQGTLVTVSS
# VL: DIQMTQSPSSLSASVGDRVTITCRASQGISTFLAWFQQKPGKAPKSLIYAASSLQSGVPSKFSGSGSETDFTLTISSLQPEDFATYYCQQYISYPLTFGGGTKVEIK
# B3: AB1370095: anti-FRα fully human IgG1 antibody; VH SEQ ID NO: 45, VL SEQ ID NO: 46 (antibody, V domains shown)
# VH: EVQLVESGGGLVKPGGSLRLSCAASGFTFSSYSMNWVRQAPGKGLEWVSSISSRSSYVYYADSVKGRFTISRDNAKNSLYLQMNSLRAEDTAVYYCARGMTTLTFDYWGQGTLVTVSS
# VL: DIQMTQSPSSLSASVGDRVTITCRASQGISSFLAWFQQKPGKAPKSLIYAASSLQSGVPSKFSGSGSGTDFTLTISSLQPEDFATYYCQQYNSYPLTFGGGTKVEIK
# B4: AB1370035: anti-FRα fully human IgG1 antibody; VH SEQ ID NO: 41, VL SEQ ID NO: 42 (antibody, V domains shown)
# VH: QVQLQQSGPGLVKPSQTLSLTCAISGDSVSSNSAAWNWIRQSPSRGLEWLGRTYYRSNWYNDYTLSVKSRITVNPDTSKNQFSLQLNSVTPEDTAVYYCVRGVGRFDSWGQGTLVTVSS
# VL: DIQMTQSPSTLSASVGDRVIITCRASQSISSWLAWYQQKPGKAPKLLIYKASSLESGVPSRFSGSGSGTEFTLTITSLQPDDFASYYCQEYKTYSIFTFGPGTKVDIK
# What was measured:
# [1] = molecular target: T1, human FRα (Homo sapiens, UniProt P15328); assay: HTRF epitope competition assay with Comparator 1 IgG; format: binding; settings: n > 2; human IgG1 format
# T1 construct: CD33 leader (signal peptide) (N, cleaved yes); made in house; host or cells: in-house suspension-adapted CHO cell line
# Method: (§1) HTRF epitope competition assays were set up using a titration of test IgG, 1 nM streptavidin cryptate, biotinylated human FRα and DyLight 650 labelled IgG to assay volume of 10 μl. For the Comparator Antibody 1 and Comparator Antibody 2 assays, 0.5 nM biotinylated human FRα and 0.5 nM DyLight 650 labelled Comparator Antibody 1 or Comparator Antibody 2 was used. […] Assay plates were incubated for 3-4 h at room temperature prior to fluorescence measurement.
# [2] = Accelerated thermal stability assay, HP-SEC; format: physicochemical; settings: 2 weeks, 1 mg/ml in PBS
# Method: IgG were diluted to 1 mg/ml in PBS then incubated at 4° C. or 45° C. for 2 weeks then filtered using filter spin columns (Millipore, UFC30HVNB). High performance-size exclusion chromatography (HP-SEC) was performed by loading 70 μl of IgG onto a TSKgel G3000SWXL; 5 μm, 7.8 mm×300 mm column using a flow rate of 1 ml/min and 0.1 M sodium phosphate dibasic anhydrous and 0.1 M sodium sulphate, pH 6.8 as the isocratic running buffer. Larger molecules are excluded from the pores of the size exclusion column to a greater extent than smaller molecules, and therefore elute earlier. Peaks eluting earlier than the monomer peak are recorded as aggregates. Peaks eluting after the monomer peak (excluding the buffer-related peak) are recorded as fragments. In parallel, antibodies were profiled in the HTRF epitope competition assay for changes in potency.
# [3] = molecular target: T1, human FRα; assay: HTRF epitope competition assay with Comparator 2 IgG; format: binding; settings: n > 2; human IgG1 format
# Method: as §1
# [4] = molecular target: T1, human FRα; assay: HTRF epitope competition assay with Comparator 3 IgG; format: binding; settings: n > 2; human IgG1 format
# Method: as §1
# [5] = Pharmacokinetics of anti-FRα antibodies in wild-type SCID mice; format: in vivo, mouse; settings: 5 mg/kg iv bolus, total antibody
# Method: Pharmacokinetic parameters were determined using Phoenix 64 software (Certara).
# Plasma antibody concentrations were determined by the universal ELISA IgG assay.
# [6] = system: cyno FRα; assay: HTRF antigen (IgG) binding assay; parameters: species or system cynomolgus monkey; settings: hybridoma supernatant, 1 nM biotinylated antigen; binder >30% delta F
# Method: (§2) The negative control ratio was derived from nonspecific binding (NSB) control wells. Curves were analysed using GraphPad Prism software using a four-parameter logistic curve-fitting equation.
# [7] = molecular target: T1, human FRα; assay: Biacore T200 surface plasmon resonance affinity; format: binding; settings: SPR 25° C.
# Method: (§3) Protein A was covalently immobilised to a CM5 chip surface using standard amine coupling techniques at a concentration of 50 μg/ml in 10 mM Sodium acetate, pH 4.0. The antibody was captured onto the Protein A surface in HBS-EP+ buffer, pH 7.4 at 10 μl/min to enable FRα ECD binding. The FRα ECD was serially diluted (0.4 nM-100 nM human FRα ECD; 0.8 nM-200 nM cyno FRα ECD; 30 nM-4000 nM mouse FRα ECD and rat FRα ECD) in HBS-EP+ buffer, pH 7.4 and flowed over the chip at 50 μl/min, with 2 minutes association and 8 minutes dissociation. The chip surface was fully regenerated with pulses of 3 M MgCl2 to remove captured antibody together with any bound FRα ECD. Multiple buffer-only injections were made under the same conditions to allow for double reference subtraction of the final sensorgram sets, which were analysed using Biacore T200 Evaluation Software to derive equilibrium dissociation constants.
# [8] = Hydrophobic interaction chromatography (HIC) HPLC; format: physicochemical; settings: higher retention = more hydrophobic
# [9] = molecular target: T2, human FRβ (Homo sapiens, UniProt P14207); assay: HTRF antigen (IgG) binding assay; settings: hybridoma supernatant, 1 nM biotinylated antigen; binder >30% delta F
# T2 construct: CD33 signal peptide (N, cleaved yes); made in house
# Method: as §2
# [10] = molecular target: T1, human FRα; assay: HTRF antigen (IgG) binding assay; settings: hybridoma supernatant, 1 nM biotinylated antigen; binder >30% delta F
# Method: as §2
# [11] = molecular target: T3, human FRγ (Homo sapiens, UniProt P41439); assay: HTRF antigen (IgG) binding assay; settings: hybridoma supernatant, 1 nM biotinylated antigen; binder >30% delta F
# T3 construct: CD33 signal peptide (N, cleaved yes); made in house
# Method: as §2
# [12] = molecular target: T4, mouse FRα (Mus musculus, UniProt P35846); assay: HTRF antigen (IgG) binding assay; settings: hybridoma supernatant, 1 nM biotinylated antigen; binder >30% delta F
# T4 construct: CD33 signal peptide (N, cleaved yes); made in house
# Method: as §2
# [13] = system: cyno FRα; assay: Biacore T200 surface plasmon resonance affinity; format: binding, cynomolgus monkey; settings: SPR 25° C.
# Method: as §3
# T3 sequence (P41439 with tags, fused parts or gaps): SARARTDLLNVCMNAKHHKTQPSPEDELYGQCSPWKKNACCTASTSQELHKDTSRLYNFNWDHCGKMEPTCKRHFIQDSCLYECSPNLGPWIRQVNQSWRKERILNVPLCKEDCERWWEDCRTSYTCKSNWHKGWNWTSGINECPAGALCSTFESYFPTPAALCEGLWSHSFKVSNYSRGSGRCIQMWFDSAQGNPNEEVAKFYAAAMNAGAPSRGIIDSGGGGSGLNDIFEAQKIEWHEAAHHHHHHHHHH
# T4 sequence (P35846 with tags, fused parts or gaps): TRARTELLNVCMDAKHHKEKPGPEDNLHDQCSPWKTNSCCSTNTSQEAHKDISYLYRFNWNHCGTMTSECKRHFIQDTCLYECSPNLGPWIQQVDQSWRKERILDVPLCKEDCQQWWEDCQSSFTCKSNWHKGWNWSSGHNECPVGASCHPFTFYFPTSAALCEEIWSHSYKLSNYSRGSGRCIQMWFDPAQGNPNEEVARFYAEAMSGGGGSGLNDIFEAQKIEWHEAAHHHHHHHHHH
# Chain of cyno FRα (as listed by the source): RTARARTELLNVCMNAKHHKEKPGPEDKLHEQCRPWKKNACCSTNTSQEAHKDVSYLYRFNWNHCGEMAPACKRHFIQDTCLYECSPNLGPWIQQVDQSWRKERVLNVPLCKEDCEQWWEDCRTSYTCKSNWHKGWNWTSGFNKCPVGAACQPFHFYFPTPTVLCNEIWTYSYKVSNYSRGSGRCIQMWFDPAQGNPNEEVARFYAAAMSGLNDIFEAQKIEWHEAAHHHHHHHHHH
# T2 sequence (P14207 with tags, fused parts or gaps): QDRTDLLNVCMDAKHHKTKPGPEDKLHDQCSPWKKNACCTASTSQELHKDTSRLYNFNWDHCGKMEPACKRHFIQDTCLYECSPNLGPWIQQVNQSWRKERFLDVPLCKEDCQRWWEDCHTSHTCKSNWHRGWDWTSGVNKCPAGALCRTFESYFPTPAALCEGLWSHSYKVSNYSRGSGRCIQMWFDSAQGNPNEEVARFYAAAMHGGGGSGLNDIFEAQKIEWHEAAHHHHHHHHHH
# T1 sequence (P15328 with tags, fused parts or gaps): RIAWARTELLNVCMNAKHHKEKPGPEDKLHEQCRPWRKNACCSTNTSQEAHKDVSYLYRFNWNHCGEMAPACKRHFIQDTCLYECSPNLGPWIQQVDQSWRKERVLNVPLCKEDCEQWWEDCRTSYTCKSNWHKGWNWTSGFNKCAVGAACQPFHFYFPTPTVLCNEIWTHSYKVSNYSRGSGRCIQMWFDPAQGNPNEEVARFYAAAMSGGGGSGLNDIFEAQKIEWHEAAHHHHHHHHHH
molecule,measurement,setting,value
B1,"HTRF epitope competition assay, geomean IC50 (M), Comparator 1 IgG",[1],inhibited
same,HP SEC % monomer,[2]; 4° C.,100%
same,HP SEC % monomer,[2]; 45° C.,97.3%
same,"HTRF epitope competition assay, geomean IC50 (M), Comparator 2 IgG",[3],inhibited
same,"HTRF epitope competition assay, geomean IC50 (M), Comparator 3 IgG",[4],no inhibition
same,AUClast,[5],553 µg·days/mL
same,CL,[5],5.3 mL/day/kg
same,Cmax,[5],91.7 µg/mL
same,Vss,[5],0.124 L/kg
same,t1/2,[5],16.6 days
same,HTRF IgG binding assay (% Delta F) Cyno FRα,[6],213.68 % Delta F
same,ka,[7],279000 M⁻¹ s⁻¹
same,kd,[7],0.000354 s⁻¹
same,Retention time by HIC-HPLC,[8],1.96 min
same,HTRF IgG binding assay (% Delta F) Human FRβ,[9],−0.38 % Delta F
same,HTRF IgG binding assay (% Delta F) Human FRα,[10],270.58 % Delta F
same,HTRF IgG binding assay (% Delta F) Human FRγ,[11],1.31 % Delta F
same,HTRF IgG binding assay (% Delta F) Mouse FRα,[12],1.63 % Delta F
same,ka,[13],195000 M⁻¹ s⁻¹
same,kd,[13],0.000342 s⁻¹
B2,"HTRF epitope competition assay, geomean IC50 (M), Comparator 1 IgG",[1],inhibited
same,HP SEC % monomer,[2]; 4° C.,99.6%
same,HP SEC % monomer,[2]; 45° C.,98.3%
same,"HTRF epitope competition assay, geomean IC50 (M), Comparator 2 IgG",[3],inhibited
same,"HTRF epitope competition assay, geomean IC50 (M), Comparator 3 IgG",[4],no inhibition
same,AUClast,[5],430 µg·days/mL
same,CL,[5],8.6 mL/day/kg
same,Cmax,[5],86.0 µg/mL
same,Vss,[5],0.132 L/kg
same,t1/2,[5],11.0 days
same,HTRF IgG binding assay (% Delta F) Cyno FRα,[6],85.16 % Delta F
same,ka,[7],145000 M⁻¹ s⁻¹
same,kd,[7],0.000135 s⁻¹
same,Retention time by HIC-HPLC,[8],2.27 min
same,HTRF IgG binding assay (% Delta F) Human FRβ,[9],3.81 % Delta F
same,HTRF IgG binding assay (% Delta F) Human FRα,[10],139.98 % Delta F
same,HTRF IgG binding assay (% Delta F) Human FRγ,[11],−2.92 % Delta F
same,HTRF IgG binding assay (% Delta F) Mouse FRα,[12],−3.65 % Delta F
same,ka,[13],101000 M⁻¹ s⁻¹
same,kd,[13],0.00016 s⁻¹
B3,"HTRF epitope competition assay, geomean IC50 (M), Comparator 1 IgG",[1],inhibited
same,HP SEC % monomer,[2]; 4° C.,99.2%
same,HP SEC % monomer,[2]; 45° C.,96.6%
same,"HTRF epitope competition assay, geomean IC50 (M), Comparator 2 IgG",[3],inhibited
same,"HTRF epitope competition assay, geomean IC50 (M), Comparator 3 IgG",[4],no inhibition
same,AUClast,[5],646 µg·days/mL
same,CL,[5],6.6 mL/day/kg
same,Cmax,[5],123.2 µg/mL
same,Vss,[5],0.071 L/kg
same,t1/2,[5],7.8 days
same,HTRF IgG binding assay (% Delta F) Cyno FRα,[6],85.33 % Delta F
same,ka,[7],95700 M⁻¹ s⁻¹
same,kd,[7],0.00129 s⁻¹
same,Retention time by HIC-HPLC,[8],2.12 min
same,HTRF IgG binding assay (% Delta F) Human FRβ,[9],−5.87 % Delta F
same,HTRF IgG binding assay (% Delta F) Human FRα,[10],126.25 % Delta F
same,HTRF IgG binding assay (% Delta F) Human FRγ,[11],−1.17 % Delta F
same,HTRF IgG binding assay (% Delta F) Mouse FRα,[12],−5.66 % Delta F
same,ka,[13],95800 M⁻¹ s⁻¹
same,kd,[13],0.00183 s⁻¹
B4,"HTRF epitope competition assay, geomean IC50 (M), Comparator 1 IgG",[1],inhibited
same,HP SEC % monomer,[2]; 4° C.,100%
same,HP SEC % monomer,[2]; 45° C.,97.3%
same,"HTRF epitope competition assay, geomean IC50 (M), Comparator 2 IgG",[3],inhibited
same,"HTRF epitope competition assay, geomean IC50 (M), Comparator 3 IgG",[4],inhibited
same,AUClast,[5],455 µg·days/mL
same,CL,[5],5.6 mL/day/kg
same,Cmax,[5],73.2 µg/mL
same,Vss,[5],0.16 L/kg
same,t1/2,[5],19.5 days
same,HTRF IgG binding assay (% Delta F) Cyno FRα,[6],141.47 % Delta F
same,ka,[7],568000 M⁻¹ s⁻¹
same,kd,[7],0.000527 s⁻¹
same,Retention time by HIC-HPLC,[8],2.25 min
same,HTRF IgG binding assay (% Delta F) Human FRβ,[9],−3.26 % Delta F
same,HTRF IgG binding assay (% Delta F) Human FRα,[10],225.19 % Delta F
same,HTRF IgG binding assay (% Delta F) Human FRγ,[11],9.2 % Delta F
same,HTRF IgG binding assay (% Delta F) Mouse FRα,[12],−5.22 % Delta F
same,ka,[13],475000 M⁻¹ s⁻¹
same,kd,[13],0.000508 s⁻¹
